Experimental data: the DeepSol protein solubility set

Assay: soluble on expression in E. coli; label from the status in PepcDB or PDB records

Soluble on expression in E. coli, not soluble:
MGSDKIHHHHHHMVDIHSHIIPGIDDGSNSLETTLNMMSIAKEAGVTKMVATSHYYRGKFENSISVIEKKANELNYTLKEKGVDIDVIPGQEVFIDNYTLKDYKEGIIGTINNTDYMLVEFDMMSLGENAIDTLYELQIKGIKPIIAHPERYTYIQKDIYKINELMDENIYFQVNAGSIEGLFGKTVQKTALKLVEEGVISFIASDAHSAGKRCPGYEKALHDLTKIDKTLAEKFIKNSNLLLENEKIENKVRKLKKKKTFFSFLK
MGSDKIHHHHHHMVEIINPFDGGGYSLAEMTQAINILPNLYTRLGQMGLFRFEGVTQRSVIIEQAEGVLNLLPTVPLGGPATVANRDARSMRSFTVPWIPHDDSITPQDVQGVRGFGVADAADPLATVMERKLTRMRTKHAQTREFMEINALRGIVRDGSGSTLYDYFAEFGLVRQQVDFALGTAATNVQAKIREVLRLVEVELKGETMTSVTALVSPAFFDKLISHPKVESAYQYFSSTGAQPLREDVRRRFPFAGMVFEEYNATVTLATGSNETLVPAGEGIAFPLGTTDTFVTYGAPANLIETVNTMGLPMYARQLARQDGSAIDVKTEASILPVNKRPRLAVRIFSGN
MGSDKIHHHHHHMVINIEQAIAWMASRKGKVTYSMDYRNGPSSYDCSSSVYFALRSAGASDNGWAVNTEYEHDWLIKNGYVLIAENTNWNAQRGDIFIWGKRGASAGAFGHTGMFVDPDNIIHCNYGYNSITVNNHDEIWGYNGQPYVYAYRYARKQSNAKVDNQSVVSKFEKELDVNTPLSNSNMPYYEATISEDYYVESKPDVNSTDKELLVAGTRVRVYEKVKGWARIGAPQSNQWVEDAYLIDATDM
MGSDKIHHHHHHMVKVVKFGGSSLANAAQYQKVIEILRADPERRIVVVSAPGKRFKDDVKVTDLLIKYANASGENVKVARQAVLDRYQEIADAYHVSDSDFEQINVHLIDLANLHHANKACRLAHFKAAGERLNAILMALVLKKFNVTARFVDPKQLGIKAHGDYNNAILDQHSYAQIEAVCSNLLDEAEYLVVPGFYAYNQNGEVCTFSRGGSDITGAILARGFQAQLYENFTDVDSIYSADPKIIAQPHPIREMTYREMRELAYAGFSVFHDEAIIPAIEAQVPIVIKNTDHPNLPGTVIEPEQNYASDLEITGVASSSRFAALYIHKYLLNREVGFTLKLLKILYRYDISYEHMPSGIDDLTIIFNQNQITDEILPSLLSDIREELHTDQLEWIDDYAILMVVGEGMRDKVGVVDRIVNALARKQIGIQMINQGASRISTMLGVHQNQVNQAVREIYREFFKNKGRAD
MGSDKIHHHHHHMVKYSGVCILFGAGGGGENALSLLKLEGCNISAIVDNDLKKHNTFLDDTPIYAPEKLNCDLIFDKILIASGYSKSILAQLGQYNISQERIIVLPQYYLKPNRFSDQVLYSLAWDFIFSFSELMNKLNIRYWLDYGTLLGLVRDNDLISWDSDLDFCILDENKGYLINSFSVISEHISSTIGCDVKIELIKGAECEHSRVFISCNRDNVILDIDVFIKFNFSNFVCLEVMDRVERYNAEHYVAVDFLNVKGISLPVPNKYDQYLTRVYGSWCVANKEWTLYS
MGSDKIHHHHHHMVLVVAGFDPSGGAGIIQDVKVLSALGVKTHAVISALTVQNENRVFSVNFRDWEEMRKEIEVLTPPRVIKVGLSAPETVKRLREMFPDSAIVWNVVLESSSGFGFQDPEEVKKFVEYADYVILNSEEAKKLGEYNNFIVTGGHEKGNTVKVKYRDFVFEIPRVPGEFHGTGCAFSSAVSGFLAMSYPVEEAIRSAMELLKKILERSSGVVETEKLLRDWYRYDTLNTLDEILPEFLEIGHLTVPEVGQNVSYALPWAKNEFEVGKFPGRIRLKEGKAVAVSCASFKDRSHTARMAVTMMRYHPHMRCVVNVRYEREYVERAKKRGLKVFHYDRSKEPKEVQEKEGQSMVWMIEQAIAELKSPPDVIYDEGWWGKEAMIRVFGRNPKEVLEKIKLMVRE
MGSDKIHHHHHHMVMYLENPGKLDRKFFTESILRYTGYRRPEDKVPPKNGVDTGIISIGNGKVMAVTTDPFYFDPVFGYEDSAWFAYHILASDITTAGVYPEYMTVDLNLPISISNEEIARMWKTVHEEAYKYKTSIITGHTARYANTGFPMVGGATMFGFTDDDKYVTTAMARPGDIMIMTKTAGIEAASLLTRIFPNHVKKNLGEDKYRYGFELFRKLSTVDEAIQAIEFGTRKAITSMHDATEGGLLGAVYEVAEASGNGVSIDKEAIHVDDYVKEIHSLFGIDPLRSISEGTLLMTIDPEYADEFMKRLTKSGIDSYVIGKMTTKDEGIKFKDGSEPIGEPEKDPFWYAVEKSMKMGLS
MGSDKIHHHHHHMVSLMEHGMLPDAVIRSGIRRLLMKRLQEESCGDTEADRARQREFFEQLSHSPLAMETGAANKQHYELPPDFFSLVLGPRRKYSCCLYPPGVDDLATAEEAMLRLTCQRAGLADGMDILELGCGWGSLTLWMAEHYPDARITAVSNSAPQRQFIQGACRGRGFGNVRVITADMNDFTIEKTFDRVVSVEMFEHMRNYAELLRRIAGWLKDDGRLFVHIFCHRTLAYLFQTDGEDDWMGRYFFTGGIMPSDHLLFYFNDHLAVEDHWRVGGRHYQRTCDGWLERMDTERRKILEIFWDVYEGDAPVWFQRWRVFFMACSELFGYSEGNEWFVSHYLLRKNSAGVLCGNRQKALSFSGVCK
MGSDKIHHHHHHMVVNLTYMLNTEDRKFIIDSVKKGYKVTELARMFNVTPRRIQQILHESEMPESAKDSELTDEEKKFIDDLWDRYRIGSRTIYYLLRSKGLNVSYYKIYNYMKMKRMVQIKDNALIVNGKKAEPPLSTVLLDYHQKNFNDQYAIFCVDMTTKKILSYAESVKITSDVVSGVL
MGSDKIHHHHHHMVVSIGVFDGVHIGHQKVLRTMKEIAFFRKDDSLIYTISYPPEYFLPDFPGLLMTVESRVEMLSRYARTVVLDFFRIKDLTPEGFVERYLSGVSAVVVGRDFRFGKNASGNASFLRKKGVEVYEIEDVVVQGKRVSSSLIRNLVQEGRVEEIPAYLGRYFEIEGIVHKDREFGRKLGFPTANIDRGNEKLVDLKRGVYLVRVHLPDGKKKFGVMNVGFRPTVGDARNVKYEVYILDFEGDLYGQRLKLEVLKFMRDEKKFDSIEELKAAIDQDVKSARNMIDDIINSKFEKEG
MGSDKIHHHHHHMWFAVLSSNEVRRKPVGVRRLGRDLVFWRDSLGKVYALEDFCVHRRARLSAGKVINDRIQCPFHGFEYDGNGRVRLIPALGKNYKVPDRFRVNSYPVYEKNNIIWLWSGEGEPEKEPKFFDDIDEDFAYAEFRELWNVPFPRAVENQLDVMHLPFVHRTTIGRGNRTLVHGPVVKWIDEDSFIFYVFNEVDRGQRVKRPEELSGEESRVYLEFIFPNLWQNHISEGTRVVAFFVPVDRQKTMIYLRFYVKMTGLKPVDSIIARLSMPLNRIILHQDRRVVETQERDIRKDVLVQGDLPIMEFRKRLYKEKKLIDFLFGGGQ
MGSDKIHHHHHHMWKSISQVLAEQFGAYYFIKHKEKLYSGEMNEIWLINDEVQTVFVKINERSYRSMFRAEADQLALLAKTNSINVPLVYGIGNSQGHSFLLLEALNKSKNKQSSFTIFAEKIAQLHQIQGPDKYGLDFDTWLGPIYQPNDWQTSWAKFFSENRIGWQLQICKEKGLIFGNIDLIVQIVADTLSKHNPKPSILHGNLWIENCIQVDDKIFVCNPACYWGDRECDIAFSSLFEPFPTNFYQRYNEIYPLEEGYLERKLIYQLYYLLNFSYRYYNKKQSYVSLTQKLINQILHKIDK
MGSDKIHHHHHHMWPDRHAKHLTLGRSRQQMLEFENVSKSFWTGTQRKVILDRVSFRVELGKSMGILAPNGTGKSTLINMMAGLEKPDEGVIRRGCNISFPLGFMGGVVGRLSAMENSRYIARLYGMDPDYIEAYCRWLCGLGEYFDQPLGTYSSGMRARFSFALMLALDFDMYLIDEGMPASTDVEFNKKAGAILEERLRTTTIVIVSHQPATLEQFARQAAVLMDGQLHVFDTLEEAKQLYDYQTQG
MGSDKIHHHHHHMYAETDFIALSALQHYVFCPRQCALIHLEQVWSENLYTAEGREMHERADSAVTSYREGVKVTRSVPLRSAVLGVSGVADVVEWHRREGGFEPFPVEYKRGKPKKHDADKVQLCAQAMCLEEMRSCAIPSGALFYGQTMRRLDVVFDEVLRSKTVAAAAGVHGLFSLGVTPHPEFGPKCKLCSLVDECLPEVLERHGSAKRYVQKLYRELSGEEI
MGSDKIHHHHHHMYIEEIKRVLSDQRDVLEEKMSRKLVERDVPNLLKYLEVPNALAILGVRRSGKSTLSLLLLKRKKFAYVNFDDERFYNLNIGDLNKVLQAIYELYGVDVDYIVLDEIHNVKGWELFVSRLRDVKKLIITGSNSKMLSGELATYLTGRHSDYILFPFSFQEYLKYKEVKVEYFSTRVISTLKNELEKYTEVGGFPEALMLGKEQVNVIYNDILFKDIVSRYKIREIEKFREFARTVISYYSNEISLSSIAKILGLNKRTVEKWASGLREAYLTFFIPRYGEKLKQRLTYNKKVYVVDVGIVSNLAIKGKDKGRIIENLVAIKLLRELQGEEKLYYMRNNYEVDFYDEKNSRLIQVTYTSDKIENREIRGLIEGYRLTKAKKLLIITWDLEEKIQVEGVNIEVLPLYRFLLE
MGSDKIHHHHHHMYIESFKQHFSAIDDHRQSAKVTYPLFDVLFGSLCAVIASSNGWFEIREYILGHHSWFKKQKMFIDGIPADDTIARIVSMIEPDSFNACFLAWMKSVHQLTNGEVIAIDGKTLRGSYNRDDRSSTIHMISAYASANKLVLGQLKAEQKSNEITAIPTLLKMLDLRGALVTIDAMGCQTAIATTIIDKGGDYLLAVKNNQGNLAKAINKAFSSHRSAGLSDDHVNIEKSHGRIENRACFVLSSAELDGDFTHWEALKSIVMVESFRAVKGKTASLEYRYYISSKVLSAEQALSATREHWGIESMHWVLDVSMNEDECQIYKNNGAENLAYLRHMSLNMLQKEPTKLSIVGKRKRCLMNPAFLEKVLIAGLCAPTK
MGSDKIHHHHHHMYKEYSPCSVLAPFIYHFWEYKGETRNGLKFNIPPHGRSDFVFIVGNAADCIRNSLIMKPYHSYFFGPMNTFTELVAHTNFIYIIGVRFRPCGLFRFIDIPLNELTNQGIDSHEFPVLFSQSFIYQLCESNQNPIDAIEHELVRQVYKNNTDTEKQISYAVSLISRQKGIVSIKELATEACLGLRQFERKFKFYTGYSPKEYSRIVKFWNAIHLLKSNTSFDNFLSVAIQAGYYDTPHLYREVKRLSGNTPNAFLSLSTNEKVEVLHIEL
MGSDKIHHHHHHMYLITSAAMVASELQSEFGPLPPCFLPVGNKRLFHHQLALIPAGERTIITLPEGFTPGPYDSQSLKDYGVELLYLPPTLSLGESIVYALIQLEFADDEPLYILHGDTLFDSLPRQTDCLGLSQVEDNYNWAEFDAQSGTLRPYHAELRPSSELISNGFFSFSAPRTLIRYITQAKGDFIAGLNGYIDDKGLTPITLPHWYDFGHSHTYYQSKSRMTTQRAFNGMAIQGQVVKKFSRNKHKLAAEANWYQSLPGPMRGYIPQLLGCDESPELFGYSIEYLHLTALNELYVFSQLPAFAWRKVLKACCQFLKDASSYSVADAQTLSGLFMDKTLSRLEDFASQSGISVAQENRINGALRPSLLELARISREYLPKDNGRQHLLHGDFCFSNILYDFRTCNIKVIDPRGLDGNDKQTIHGNGLYDIAKLAHSVLGLYDAIIAGYFKAERLGQNLDFSIAITPRREQIMADFVRLMASEFAVSEAELYAMQIQLFLSMLPLHSDRPDRQLGFIGNAYRLYDRLLACTGNPS
